{
  "source": "patent KR20210097819A",
  "about": "(dated 2021)",
  "biological_target": "T1, human TNFα N-his trimer (human, UniProt P01375 77-233)",
  "T1 construct": "Captured on an NTA sensor chip through the N-terminal His tag for Biacore; also called His-tagged TNF (made by ESBATech); not shown: N-terminal His tag",
  "T1 sequence (P01375 77-233 limits assumed)": "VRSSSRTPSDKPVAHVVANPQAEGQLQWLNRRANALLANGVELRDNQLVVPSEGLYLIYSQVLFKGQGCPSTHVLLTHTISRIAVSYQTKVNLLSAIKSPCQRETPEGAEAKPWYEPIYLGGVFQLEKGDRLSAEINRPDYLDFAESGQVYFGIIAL",
  "assay": "SPR (BIAcore T100), His-tagged TNFα captured on an NTA chip, scFv as analyte",
  "data": [
    {"binder": "EP43max (scFv) EIVMTQSPSTLSASVGDRVIIKCQASQSISDWLAWYQQKPGKAPKLLIYGASRLASGFPSRFSGSGSGAEFTLTISGLEPADFATYYCQQGWSDSYVDNLFGQGTKLTVLGGGGGSGGGGSGGGGSGGGGSEVQLVESGGGLVQPGGSLRLSCTVSGFSLSSGAMSWVRQAPGKGLEWVGVIISSGATYYASWAKGRFTISKDTSKNTVYLQMNSLRAEDTAVYYCARGGPDDSNSMGTFDPWGQGTLVTVSS", "values": [
      {"measurement": "Kd", "result": 0.25, "unit": "nM"}
    ]}
  ]
}
